# Measured values taken from patent US9187525B2, “Methods of treating ophthalmic diseases using NPR-B agonists” (Shire Orphan Therapies GmbH, dated 2015).
# Numbered stars: 1 amine (or outer) side, 2 acyl side, 3 side chain; on linkers, the order of the positions; unused ones are H or OH. Square brackets hold non-standard residues; d marks the D form. Primed or numbered codes have the meaning given here. Ends that are not written are not given here. * marks the point of attachment. Pro(trans-4-NH2) = O=C([C@@H]1C[C@@H](N[*:3])CN1[*:1])[*:2]; Sni = (S)-nipecotic acid, O=C([C@H]1CCCN([*:1])C1)[*:2]; cPrCO(1-aminomethyl) = O=C(C1(CN[*:1])CC1)[*:2]; Hyp = O=C(O)[C@@H]1C[C@@H](O)CN1; dTle = CC(C)(C)[C@@H](N)C(=O)O; NMeL = CN[C@@H](CC(C)C)C(=O)O; Chg = N[C@H](C(=O)O)C1CCCCC1; Hyp(2581) = not defined here; NMeK = CN[C@@H](CCCCN)C(=O)O; orn(Me2) = not defined here; Nle = CCCC[C@H](N)C(=O)O; Octanoyl = CCCCCCCC(=O)*; dAbu = CC[C@@H](N)C(=O)O; 1270 = not defined here; 1860 = not defined here; 2797 = not defined here; 3791 = not defined here; 3806 = not defined here; 4956 = not defined here; 504 = not defined here; 559 = not defined here; 565 = not defined here; 933 = not defined here; leu = not defined here; Ac3c = NC1(C(=O)O)CC1; Occ = octanoic acid
# Biological target: T1, natriuretic peptide receptor-B (human)
# T1 chain: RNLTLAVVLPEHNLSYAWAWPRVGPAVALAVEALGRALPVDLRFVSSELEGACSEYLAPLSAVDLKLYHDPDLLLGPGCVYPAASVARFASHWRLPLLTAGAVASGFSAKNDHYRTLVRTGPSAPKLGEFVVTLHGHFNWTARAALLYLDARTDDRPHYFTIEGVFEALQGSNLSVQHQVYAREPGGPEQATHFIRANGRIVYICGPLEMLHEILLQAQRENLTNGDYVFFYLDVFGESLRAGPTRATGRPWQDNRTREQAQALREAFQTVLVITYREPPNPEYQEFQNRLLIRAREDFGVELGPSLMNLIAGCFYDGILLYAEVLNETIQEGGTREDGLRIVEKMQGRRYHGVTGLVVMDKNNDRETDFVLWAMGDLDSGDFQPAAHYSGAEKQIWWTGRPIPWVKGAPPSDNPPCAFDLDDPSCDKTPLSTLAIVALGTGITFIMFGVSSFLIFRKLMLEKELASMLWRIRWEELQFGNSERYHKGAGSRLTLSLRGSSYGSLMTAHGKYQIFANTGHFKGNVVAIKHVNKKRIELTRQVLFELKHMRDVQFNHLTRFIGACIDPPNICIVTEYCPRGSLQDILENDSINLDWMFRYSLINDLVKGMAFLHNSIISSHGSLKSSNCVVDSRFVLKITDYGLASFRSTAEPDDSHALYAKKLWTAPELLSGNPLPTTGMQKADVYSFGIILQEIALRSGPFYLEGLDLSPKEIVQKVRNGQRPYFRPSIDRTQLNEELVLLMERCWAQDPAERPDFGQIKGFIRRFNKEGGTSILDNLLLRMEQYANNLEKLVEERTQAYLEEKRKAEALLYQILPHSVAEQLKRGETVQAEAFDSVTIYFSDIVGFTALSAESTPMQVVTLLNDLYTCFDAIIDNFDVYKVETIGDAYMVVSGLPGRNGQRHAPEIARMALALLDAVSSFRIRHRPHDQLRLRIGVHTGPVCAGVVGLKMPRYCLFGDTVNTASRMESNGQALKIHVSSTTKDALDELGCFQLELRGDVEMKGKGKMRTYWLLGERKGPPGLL
# Assay: cell-based or functional assay
row,Binder,"EC50 group, cGMP in GTM-3 cells"
1,Octanoyl-[dA][dA]FGLK[Chg]DRI-NH2 [JAL-0772],≤ 15 µM
2,Octanoyl-[dA][dA]FGLKLDR[565] (reading uncertain; also: printed as Occ-ala-ala-Phe-Gly-Leu-Lys-Leu-Asp-Arg-565) [JAL-0752],≤ 5 µM
3,[Occ][dTle]FGLKLDRI-NH2 [JAL-0758],≤ 15 µM
4,Octanoyl-AAFGLKLDR[1860] (not fully specified (some residues); printed as Occ-ala-ala-Phe-Gly-Leu-Lys-Leu-Asp-Arg-1860; reading uncertain) [JAL-0789],≤ 5 µM
5,[Occ][Sni]F[leu]LX[NMeL]DRI-NH2 (not fully specified (residue 6); printed as Occ-Sni-Phe-leu-Leu-Hyp(Asp(-))-Nml-Asp-Arg-Ile-NH2) [JAL-1928],≤ 5 µM
6,[Occ][cPrCO(1-aminomethyl)]FGLKLDRI-NH2 [JAL-0760],≤ 15 µM
7,Octanoyl-[dA][dA]FGLK[Nle]DRI-NH2 [JAL-0775],≤ 15 µM
8,Octanoyl-[dA][dA]FGLKLDRI-NH2 (not fully specified (some residues); printed as Occ-ala-ala-Phe-Gly-Leu-Lys-leu-Asp-Arg-Ile-NH2) [JAL-0769],≤ 15 µM
9,Octanoyl-[dA][dA]FGLKLDR[2797] (reading uncertain; also: printed as Occ-ala-ala-Phe-Gly-Leu-Lys-Leu-Asp-Arg-2797) [JAL-0754],≤ 5 µM
10,[Occ][Sni]F[orn(Me2)]L[Hyp][NMeL]DRI-OH (reading uncertain; also: printed as Occ-Sni-Phe-orn(Me2)-Leu-Hyp-Nml-Asp-Arg-Ile-OH) [JAL-1931],≤ 5 µM
11,[Occ][Sni]F[orn(Me2)]L[Pro(trans-4-NH2)][NMeL]DRI-NH2 (reading uncertain; also: printed as Occ-Sni-Phe-orn(Me2)-Leu-Tap-Nml-Asp-Arg-Ile-NH2) [JAL-1936],≤ 1 µM
12,[Occ][Sni]F[leu]L[Hyp][NMeL]TRI-NH2 (reading uncertain; also: printed as Occ-Sni-Phe-leu-Leu-Hyp-Nml-Thr-Arg-Ile-NH2) [JAL-1932],≤ 1 µM
13,[Occ][Ac3c]FGLKLDRI-NH2 [JAL-0761],≤ 15 µM
14,933-AFGLKLDRI-NH2 (not fully specified (some residues); printed as 933-ala-Phe-Gly-Leu-Lys-Leu-Asp-Arg-Ile-NH2; reading uncertain) [JAL-0786],≤ 15 µM
15,[Occ][Sni]F[leu]L[Hyp(2581)][NMeL]DRI-NH2 (reading uncertain; also: printed as Occ-Sni-Phe-leu-Leu-Hyp(2581)-Nml-Asp-Arg-Ile-NH2) [JAL-1929],≤ 5 µM
16,[Occ][Sni]F[leu]L[Hyp][NMeL]DRI-OH (reading uncertain; also: printed as Occ-Sni-Phe-leu-Leu-Hyp-Nml-Asp-Arg-Ile-OH) [JAL-1930],≤ 5 µM

row,Binder,"EC50 group, cGMP in GTM-3 cells"
1,[Occ][Sni]F[leu]LX[NMeL]DRI-NH2 (not fully specified (residue 6); printed as Occ-Sni-Phe-leu-Leu-Tap(Asp(-))-Nml-Asp-Arg-Ile-NH2) [JAL-1935],≤ 5 µM
2,Octanoyl-[dA][dA]FGLKIDRI-NH2 [JAL-0770],≤ 15 µM
3,"XAAFGLKVDRI (not fully specified (residue 1, C-terminus); printed as Occ-ala-ala-Phe-Gly-Leu-Lys-Val-Asp-Arg-Ile-NH2) [JAL-0771]",≤ 15 µM
4,1270-AFGLKLDRI-NH2 (not fully specified (some residues); printed as 1270-ala-Phe-Gly-Leu-Lys-Leu-Asp-Arg-Ile-NH2; reading uncertain) [JAL-0787],≤ 15 µM
5,Octanoyl-[dAbu]FGLKLDRI-NH2 [JAL-0762],≤ 15 µM
6,Octanoyl-[dV]FGLKLDRI-NH2 [JAL-0756],≤ 15 µM
7,Octanoyl-[dS]FGLKLDRI-NH2 [JAL-0763],≤ 15 µM
8,Octanoyl-AAFGLKLDR[3791] (not fully specified (some residues); printed as Occ-ala-ala-Phe-Gly-Leu-Lys-Leu-Asp-Arg-3791; reading uncertain) [JAL-0792],≤ 15 µM
9,4956-AFGLKLDRI-NH2 (not fully specified (some residues); printed as 4956-ala-Phe-Gly-Leu-Lys-Leu-Asp-Arg-Ile-NH2; reading uncertain) [JAL-0788],≤ 15 µM
10,Octanoyl-[dA][dA]FGLPLDRI-NH2 [JAL-0781_01],≤ 5 µM
11,Octanoyl-AAFGLKLDR[559] (not fully specified (some residues); printed as Occ-ala-ala-Phe-Gly-Leu-Lys-Leu-Asp-Arg-559; reading uncertain) [JAL-0791],≤ 15 µM
12,Octanoyl-AAFGLKLDR[504] (not fully specified (some residues); printed as Occ-ala-ala-Phe-Gly-Leu-Lys-Leu-Asp-Arg-504; reading uncertain) [JAL-0790],≤ 15 µM
13,Octanoyl-AAFGL[NMeK]LDRI-NH2 (not fully specified (some residues); printed as Occ-ala-ala-Phe-Gly-Leu-Nmk-Leu-Asp-Arg-Ile-) [JAL-0782],≤ 15 µM
14,Octanoyl-[dA][dA]FGLK[NMeL]DRI-NH2 [JAL-0776],≤ 15 µM
15,Octanoyl-[dA][dA]FGLKLDR[3806] (reading uncertain; also: printed as Occ-ala-ala-Phe-Gly-Leu-Lys-Leu-Asp-Arg-3806) [JAL-0751],≤ 15 µM
